Tests used:
[1] = target: T1, silk fibroin, sericin-extracted, from degummed Bombyx mori silk, dissolved in 9.3 M LiBr and dialysed (Bombyx mori, UniProt P05790 22-5263; P21828 17-262, limits assumed); assay: HPLC of 23RGD extracted from the rinsed silk gel, against a standard curve
T1 construct: also called silk molecules
From the text: 23RGD-infused gels were studied to quantify the amount of 23RGD bound to the silk-hydrogel device as well as the quantity of free 23RGD which might be rinsed free of the device under relevant conditions. Briefly, samples of 23RGD-infused gel were cast and rinsed according to the methods above, with samples of rinse buffer being collected from each rinse for subsequent analysis by HPLC. Additionally, subsequent to the last rinse, the gel samples were mechanically pulverized by means of a stainless steel stirring rod and the adsorbed 23RGD removed by incubation for 4 hours in a dissolving buffer. This mixture of gel and solvent was then centrifuged on an Eppendorf 5415C at 16,000 g RCF for 30 minutes. The supernatant was collected and centrifuged another 30 minutes at 16,000 g RCF after which time the supernatant was collected in a sample vial for HPLC analysis. Samples of rinse buffer from the first and last rinse were centrifuged in the same fashion after being diluted with the same solvent the gel was extracted with in a volumetric ratio of 1 part rinse buffer to 4 parts solvent. To ensure 23RGD-hydrogel device rinse-exposed surface area was not a limiting factor, the same rinse and extraction process was performed upon devices pulverized after gelation and before rinsing. […]

[2] = target: T1, silk fibroin, sericin-extracted, from …; assay: HPLC of 23RGD extracted from silk precipitate; formulation AVLO, against the calculated ratio
Procedure: (§1) The amount of 23RGD bound to silk precipitates was quantified by analyzing lyophilized samples. The 23RGD was removed by incubating the samples for 4 hours in a dissolving buffer, then centrifuging on an Eppendorf 5415C (Eppendorf North America Inc., Westbury, N.Y.) at 16,000 g (RCF) for 30 minutes and the supernatant collected. This supernatant was then centrifuged in identical fashion and the final supernatant collected for HPLC analysis using a PerkinElmer Series 200 (PerkinElmer, Waltham, Mass.). The 23RGD peak areas from each curve were compared against a standard curve. 1-Way ANOVA was used to test for significant differences caused by changing silk concentration, 23RGD concentration, and accelerant volume. A Student's t-test was used to test the significance of differences resulting from altered ethanol concentrations.
(§2) Few of the silk precipitates entrained a molar ratio similar to what was initially calculated (FIG. 23). Four groups, SCVLO, AVHI, RHI, and RLO contained ratios similar to their calculated values of RGD per mole of silk. The six remaining groups contained ratios substantially greater than their calculated values. In the cases of AVLO, BASE, RMED, and SCLO, the RGD quantities were about 2-fold greater than expected. Although not wishing to be limited by theory, this greater observed molar ratio may be indicative of the formation of a RGD bi-layer. […]

[3] = target: T1, silk fibroin, sericin-extracted, from …; assay: HPLC of 23RGD extracted from lyophilised silk precipitate; formulation AVHI
Procedure: as §1

[4] = target: T1, silk fibroin, sericin-extracted, from …; assay: HPLC of 23RGD extracted from lyophilised silk precipitate; formulation printed as RLO
Procedure: as §1

[5] = target: T1, silk fibroin, sericin-extracted, from …; assay: HPLC of 23RGD extracted from lyophilised silk precipitate; formulation SCLO
Procedure: as §1

[6] = target: T1, silk fibroin, sericin-extracted, from …; assay: HPLC of 23RGD extracted from silk precipitate; formulation 0.6S 3R 10:1
Procedure: as §1
Precipitate samples generated at a calculated 10:1 23RGD:silk ratio consistently generated a “correct” molecular binding ratio. In the case of AVHI, this runs contrary to the trend of bound 23RGD concentrations being approximately double the projected values as indicated by AVLO and BASE (about 5:1 and about 9:1, respectively). This might be explained by saturation of the silk with 23RGD in the case of 10:1 23RGD precipitates. […]

[7] = target: T1, silk fibroin, sericin-extracted, from …; assay: HPLC of 23RGD extracted from lyophilised silk precipitate; formulation AVLO
Procedure: as §1

[8] = target: T1, silk fibroin, sericin-extracted, from …; assay: HPLC of 23RGD extracted from lyophilised silk precipitate; formulation BASE
Procedure: as §1

[9] = target: T1, silk fibroin, sericin-extracted, from …; assay: HPLC of 23RGD extracted from silk precipitate; formulation ECLO, against the calculated ratio
Procedure: as §1, §2

[10] = target: T1, silk fibroin, sericin-extracted, from …; assay: HPLC of 23RGD extracted from lyophilised silk precipitate; formulation RHI
Procedure: as §1

[11] = target: T1, silk fibroin, sericin-extracted, from …; assay: HPLC of 23RGD extracted from lyophilised silk precipitate; formulation SCVLO
Procedure: as §1

[12] = target: T1, silk fibroin, sericin-extracted, from …; assay: HPLC of 23RGD extracted from lyophilised silk precipitate; formulation printed as RMED
Procedure: as §1

[13] = target: T1, silk fibroin, sericin-extracted, from …; assay: reading of the HPLC ratios of the silk precipitates
Procedure: as §1

B1: 23RGD peptide (HOOC-GRGDIPASSKG4SRL6R-NH2) (peptide)
peptide: GRGDIPASSKGGGGSRLLLLLLR
modifications: not fully specified; -NH2 at the Arg end as printed (HOOC-Gly-...-Arg-NH2). An optional variant, SEQ ID NO: 2, is acylated (Ac-) and has D-arginines.
notes: also called 23RDG
[1]
  23RGD:silk ratio bound: 3.35 mol 23RGD per mol silk
[2]
  fold of bound RGD over the calculated RGD:silk ratio: ~2 fold
[3]
  23RGD:silk ratio bound: 10.5 mol 23RGD per mol silk
[4]
  23RGD:silk ratio bound: 1.1 mol 23RGD per mol silk
[5]
  23RGD:silk ratio bound: 9.9 mol 23RGD per mol silk
[6]
  23RGD:silk ratio bound: ~10 mol 23RGD per mol silk
[7]
  23RGD:silk ratio bound: 5.2 mol 23RGD per mol silk
[8]
  23RGD:silk ratio bound: 8.7 mol 23RGD per mol silk
[9]
  fold of bound RGD over the calculated RGD:silk ratio: ~1.5 fold
[10]
  23RGD:silk ratio bound: 10.7 mol 23RGD per mol silk
[11]
  23RGD:silk ratio bound: 11 mol 23RGD per mol silk
[12]
  23RGD:silk ratio bound: 6.95 mol 23RGD per mol silk
[13]
  apparent saturation, 23RGD:silk ratio: ~10 mol 23RGD per mol silk
